Assay results as given in doi:10.1101/2020.08.10.242008.

Biological target: T1, Full-length wild-type rat TRPV2 (transient receptor potential vanilloid 2) (rat), Q9WUD2
T1 chain: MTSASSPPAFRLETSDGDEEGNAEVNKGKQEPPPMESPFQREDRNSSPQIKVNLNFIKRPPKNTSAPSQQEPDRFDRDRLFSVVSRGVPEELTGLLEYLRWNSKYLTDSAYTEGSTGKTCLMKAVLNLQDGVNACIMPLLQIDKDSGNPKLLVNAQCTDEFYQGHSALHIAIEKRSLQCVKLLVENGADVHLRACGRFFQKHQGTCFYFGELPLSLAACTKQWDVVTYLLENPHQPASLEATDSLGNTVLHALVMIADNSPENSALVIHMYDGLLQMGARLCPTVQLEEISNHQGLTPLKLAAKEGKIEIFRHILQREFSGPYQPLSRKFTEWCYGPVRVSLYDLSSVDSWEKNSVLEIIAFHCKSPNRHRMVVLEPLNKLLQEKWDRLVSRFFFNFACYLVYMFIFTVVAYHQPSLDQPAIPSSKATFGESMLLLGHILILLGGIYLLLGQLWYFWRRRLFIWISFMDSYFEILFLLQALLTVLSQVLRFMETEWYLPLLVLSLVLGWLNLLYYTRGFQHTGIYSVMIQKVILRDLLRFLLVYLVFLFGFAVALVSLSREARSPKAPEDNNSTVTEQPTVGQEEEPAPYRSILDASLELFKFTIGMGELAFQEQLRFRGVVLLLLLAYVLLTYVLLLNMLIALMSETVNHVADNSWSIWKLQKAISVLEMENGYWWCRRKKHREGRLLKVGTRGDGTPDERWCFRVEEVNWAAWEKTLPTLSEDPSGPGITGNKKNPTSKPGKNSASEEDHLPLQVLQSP
Experiment: cryo-EM structure
Details: remark: other sources report otherwise

B1: Full-length wild-type rat TRPV2 (transient receptor potential vanilloid 2), Q9WUD2 1-761 (natural protein)
chain: T1 chain
stoichiometry N: 4
